Measurements as given in US20020090682A1 (AMRAD OPERATIONS, published 2002).

Experiments:
[1] = target: T1, IL-13Rα(NR4) expressed in CTLL cells (high affinity IL-13 receptor; cells also carry the IL-4 receptor) (murine, UniProt P16382 26-810); experiment: unlabelled IL-13 competing with 125I-IL-13 for binding to CTLL cells expressing the IL-13Rα(NR4)
[2] = target: T2, murine NR4 (IL-13 receptor α-chain, IL-13Rα) expressed in COS cells (murine, UniProt O09030 27-424); experiment: Scatchard analysis of 125I-IL-13 binding to COS cells expressing NR4
T2 construct: also called IL-13Rα(NR4)
T2 sequence: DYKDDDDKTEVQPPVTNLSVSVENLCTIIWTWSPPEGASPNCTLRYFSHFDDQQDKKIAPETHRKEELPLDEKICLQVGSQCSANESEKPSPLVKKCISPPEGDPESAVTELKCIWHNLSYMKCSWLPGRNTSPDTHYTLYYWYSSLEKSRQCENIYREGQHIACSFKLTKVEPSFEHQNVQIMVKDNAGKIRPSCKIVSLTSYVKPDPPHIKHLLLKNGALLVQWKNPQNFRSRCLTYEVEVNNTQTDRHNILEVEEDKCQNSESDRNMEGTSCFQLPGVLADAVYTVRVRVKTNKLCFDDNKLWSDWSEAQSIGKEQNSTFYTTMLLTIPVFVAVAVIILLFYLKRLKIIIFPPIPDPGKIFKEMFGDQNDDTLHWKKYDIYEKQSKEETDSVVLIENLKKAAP

[3] = target: T1, IL-13Rα(NR4) expressed in CTLL cells …; experiment: Scatchard analysis of 125I-IL-13 binding to CTLL cells expressing the IL-13Rα(NR4)
Experimental: Data have been normalised to 1×10⁴ COS cells and 1×10⁶ CTLL cells and binding was carried out on ice for 2 to 4 hours.
A likely candidate based on previous studies is the IL-4Rα.

T1 sequence (P16382 26-810): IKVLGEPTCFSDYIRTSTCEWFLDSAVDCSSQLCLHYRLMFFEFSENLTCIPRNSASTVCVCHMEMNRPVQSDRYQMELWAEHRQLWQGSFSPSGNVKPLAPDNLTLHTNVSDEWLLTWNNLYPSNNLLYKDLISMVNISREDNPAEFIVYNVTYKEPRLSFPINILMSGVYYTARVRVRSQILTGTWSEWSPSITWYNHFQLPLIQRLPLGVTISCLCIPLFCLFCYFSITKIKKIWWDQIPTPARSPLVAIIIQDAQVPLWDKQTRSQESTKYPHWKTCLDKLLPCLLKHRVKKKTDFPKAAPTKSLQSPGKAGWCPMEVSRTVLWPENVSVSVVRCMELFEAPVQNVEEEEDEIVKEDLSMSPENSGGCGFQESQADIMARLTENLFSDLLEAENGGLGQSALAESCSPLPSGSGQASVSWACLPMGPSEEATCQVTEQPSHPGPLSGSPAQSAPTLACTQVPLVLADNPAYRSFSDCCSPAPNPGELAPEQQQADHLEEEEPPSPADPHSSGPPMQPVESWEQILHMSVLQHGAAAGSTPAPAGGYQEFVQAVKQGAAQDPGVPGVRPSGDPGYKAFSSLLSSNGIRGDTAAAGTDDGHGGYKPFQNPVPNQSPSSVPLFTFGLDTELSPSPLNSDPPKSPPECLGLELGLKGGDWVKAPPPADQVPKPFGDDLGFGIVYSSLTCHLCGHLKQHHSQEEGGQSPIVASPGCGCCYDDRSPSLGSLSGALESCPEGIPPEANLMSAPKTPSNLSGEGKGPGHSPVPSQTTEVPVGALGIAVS

B1: IL-13 (obtained commercially, R & D Systems) (ligand)
chain: APGPVPRSVSLPLTLKELIEELSNITQDQTPLCNGSMVWSVDLAAGGFCVALDSLTNISNCNAIYRTQRILHGLCNRKAPTTVSSLPDTKIEVAHFITKLLSYTKQLFRHGPF
modifications: Radioiodinated (125I, iodine monochloride method) in the labelled form.
notes: the receptor and the cells are murine; also called unlabelled IL-13
IC50 [1]: ~0.3 nM
Kd [2]: 2 to 10 nM
Kd [3]: ~0.075 nM
